Experiment [1] deals with T1, mouse IL-9 (mouse, UniProt P15247 19-144).
T1 sequence: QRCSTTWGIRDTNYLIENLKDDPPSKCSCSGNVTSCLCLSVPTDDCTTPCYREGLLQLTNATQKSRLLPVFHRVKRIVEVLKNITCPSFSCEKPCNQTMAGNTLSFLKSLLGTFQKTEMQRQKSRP
As to the kind of experiment: cell-based or functional assay.

The target of experiment [2] is T1, mouse IL-9. Nature of the experiment: BLI (Octet Red 96), mAb captured on anti-mIgG Fc sensor, mIL-9 in solution, 1:1 model. As to the method:
(§1) The BLI experiments on the antagonistic antibodies were performed using an Octet Red 96 machine (Sartorius) in kinetics buffer (PBS, 0.1% (w/v) BSA, 0.02% (v/v) Tween20) at 298 K. Anti-hIgG Fc capture (AHC) or anti-mIgG Fc capture sensors (Sartorius) were functionalized with the IL-9 mAbs. […] Non-functionalized tips were used as negative controls in a double referenced setup. After subtracting the control sensorgrams, the resulting data was fitted with a 1:1 binding model. Data analysis was performed using the Data Analysis software 9.0.0.14 (Sartorius) (Table 6).
(BLI is a label-free optical method that tracks binding on a fibre tip over time.)

For experiment [3], the target named is T2, human IL-9 (human, UniProt P15248 19-144).
T2 construct: Recombinant human IL-9 (R&D Systems) in SPR and BLI; baculovirus supernatant in the bioassay; also called hIL-9; Human IL-9 SN baculo
T2 sequence (P15248 19-144 limits assumed): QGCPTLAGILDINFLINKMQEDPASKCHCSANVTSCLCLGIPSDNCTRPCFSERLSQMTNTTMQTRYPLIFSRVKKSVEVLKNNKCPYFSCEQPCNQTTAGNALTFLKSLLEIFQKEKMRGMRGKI
Nature of the experiment: SPR (Biacore 3000), IL-9 immobilised on CM-5 chip, Fab periplasmic extract injected. The procedure: (§2) The binding of Fabs (periplasmic extract) to their respective mouse or human targets was determined by surface plasmon resonance (SPR) using a Biacore 3000 apparatus (GE Healthcare). IL-9 was immobilized on a carboxymethyl dextran sensor chip (CM-5) using amine coupling in sodium acetate buffer (GE Healthcare). The Fab-containing periplasmic extracts were loaded with a flow rate of […]. The Fab binding and off-rates were measured over a 90 second period (Table 5). […] Furthermore, the ability of the antibodies to compete for human or mouse IL-9 binding to human or rat IL-9R was tested also in a Biacore 3000. For this assay, human or rat IL-9R was coated at high density on a carboxymethyl dextran sensor chip (CM-5). Then, a premade mixture of periplasmic extract (Fab) and IL-9 was injected.

The target in experiment [4] is T1, mouse IL-9. Described as above. The procedure:
as §2

Experiment [5] addresses T2, human IL-9. As to the kind of experiment: SPR screening of Fab periplasmic extracts. As to the method:
as §2

Experiment [6] has as its target T2, human IL-9. Nature of the experiment: cell-based or functional assay.
The target of experiment [7] is T2, human IL-9. Nature of the experiment: BLI (Octet Red 96), mAb captured on anti-hIgG Fc sensor, hIL-9 in solution, 1:1 model. As to the method:
as §1

The target in experiment [8] is T2, human IL-9. As to the kind of experiment: cell-based or functional assay. The source holds these as a separate data set.

We go through 14 molecules from patent US20240109960A1 (ARGENX, published 2024).

Residue numbers refer to the chain shown, from its start. Names may count otherwise.

B1: anti-mIL-9 antibody 35D8, new batch (mIgG1-N297A) (antibody, V domains shown)
VH: QVQLVESGPGLVQPSQTLSLTCTVSGGSITTSYYDWSWIRQPPGKGLEWMGAIAYSGNAYYSPSLKSRTSISRDTSKNQFTLQLSSVTPEDTAVYYCAREDHYSDTHGWNDYWGQGTQVTVSS
VL: SSALTQPSAVSVSLGQTARITCQGGSIGNFGATWYQQKPGQAPVLLSLGEHSRPSGIPERFSGSKSGGTATLTISGAQAEDEADYYCQSFDYIGNDHVFGGGTHLTVL
As to B1, the “Bioassay IC50 [pM]: neutralisation of mouse IL-9 on TS1 cells (hexosaminidase activity)” value with mouse IL-9 [1] stood at 20.1 pM.

B2: anti-mIL-9 antibody 35D8 (full mIgG2a) (antibody, V domains shown)
VH: B1 VH
VL: B1 VL
notes: the BLI values are placed here; also called mouse IL-9 mAb
For orientation: Kd means the free concentration of one partner at which half of the binding sites on the other are occupied at equilibrium, for simple one-to-one binding. Read a high Kd as lower affinity. For orientation: koff means a measure of how fast the partners let go of each other. A low value points to slow dissociation. One may read the kon as the second-order rate constant of association. A higher kon goes with fast association. Take B2: in the experiment with mouse IL-9 [2], binding was characterised by a dissociation constant (Kd) of 0.11 nM, the koff turned out to be 0.000159 s⁻¹ and the kon came to 1.39e+06 M⁻¹ s⁻¹.

B3: Fab 35D8 (Fab, V domains shown)
VH: B1 VH
VL: B1 VL
notes: it is treated as the same molecule
For B3, the binding result with human IL-9 [3] was “no binding”. In the experiment with mouse IL-9 [4], this molecule displayed a koff of 0.00047 s⁻¹.

B4: Fab 8G3 (Fab, V domains shown)
VH: EVQLVESGPGLVKPSQTLSLTCTVSGDSITTSYYGWGWIRQPPGKGLEWMGVIFSDGGTTYSPSLKSRTSISRDTSKSQFSLQLSSVTPEDTAVYYCARVQYYSGSYSYPTHIYDYWSQGTQVTVSS
VL: AQAVVTQEPSLSVSPGGTVTLTCGLSSGSVTTSNYPGWFQQTPGQAPRTLIYSTSSRHSGVPSRFSGSMSGNKAALTITGAQPEDEADYYCALHMGSSTVFGGGTHLTVL
notes: Llama-derived Fab (VH-CH1 and VL-CL) from E. coli periplasmic extract; also called 9MP8G3
On to B4, for which the binding result in the experiment with human IL-9 [5] is listed as “binds”.

B5: Fab 8C3 (Fab, V domains shown)
VH: EVQVQESGPGLVKPSQTLSLTCTVSGGSITTSSYGWMWIRQPPGKGLEWMGVIFSDGSTAYNPSLRSRTSISRDTSKNQFSLQLSSVTPEDTAVYYCARSFVRGVVIGELDYGMDYWGKGTLVTVSS
VL: B4 VL
notes: Llama-derived Fab (VH-CH1 and VL-CL) from E. coli periplasmic extract; also called 9MP8C3
Consider B5, for which, in the experiment with human IL-9 [3], the koff was found to be 0.00067 s⁻¹. The binding result with mouse IL-9 [4] was “no binding”.

B6: anti-hIL-9 antibody 6D3 (full IgG) (antibody, V domains shown)
VH: QVQVQESGPGLVKPSQTLSLTCTVSGGPITTRYYAWSWIRQPPGKGLEWMGLIDYDGSVYYSPSLKSRTSISRDTAKNQFSLQLSSVTPEDTAVYYCARVSAATLFLDYWGQGTQVTVSS
VL: LSYELTQPSALSVTLGQTAKITCQGGSLGSSYAHWYQQKPDQAPILVIYDDDSRPSGIPERFSGSSSGGTATLTISGAQAEDEGDYYCQSYDSSANFVFGGGTKLTVL
notes: also called mAb 6D3; 9MP6D3
As to B6, the “Bioassay IC50 [pM]: inhibition of human IL-9-induced Baf3hIL9RA6 cell proliferation” value (“Bioassay IC50 [pM]: inhibition” below) in the experiment with human IL-9 [6] is 58.4 pM. Moreover, in the experiment with human IL-9 [7], the Kd is 0.13 nM. Also, the “IC50, inhibition of human IL-9-induced Baf3hIL9RA6 cell proliferation (hexosaminidase, OD405)” value (“IC50, inhibition” below) in the experiment with human IL-9 [8] amounted to 0.115 nM.

B7: Fab 6D3 (Fab, V domains shown)
VH: B6 VH
VL: B6 VL
notes: it is treated as the same molecule; also called 9MP6D3
As to B7, the binding result with mouse IL-9 [4] is “no binding”.

B8: Fab 6F2 (Fab, V domains shown)
VH: EVQLQESGPGLVKPSQTVSLTCTVSGGSITTRYYGWSWIRQPPGKGLEWMGVVYSDGSTSYSPSLESRTSISRDTSKNQFSLQLSFVTPEDTAVYYCARDRAEARLRVGPTGGNDYWGQGTQVTVSS
VL: AQAVVTQEPSLSVSPGGTVTLTCGLSSESVTSSNYPDWYQQTPGQVPRLLIYTTNSRHSGVPSRFSGSISGNKAALTITGAQPEDEADYYCGLYMGSTAVFGGGTKLTVL
notes: Llama-derived Fab (VH-CH1 and VL-CL) from E. coli periplasmic extract; also called 9MP6F2
For the molecule B8, the binding result in the experiment with human IL-9 [5] is “binds”.

B9: Fab 6C4 (Fab, V domains shown)
VH: QVQLVESGGGLVQPGGSLRLSCAASGFTFDDYAMSWVRQAPGKGLEWVSAISWNGGSTYHAESMKGRFTISRDNAKNTLYLQMNSLKSEDTAVYYCAKNLYGSSWYEYDYWGQGTQVTVSS
VL: LSYELTQPSAVSTSLGQTARVTCQGDILESYGASWYQQKPGQAPVLVIYGDDSRPSGIPERFSGSSSGGTATLTISGAQAEDEADYYCLSADSSDYNAVFGGGTHLTVL
notes: Llama-derived Fab (VH-CH1 and VL-CL) from E. coli periplasmic extract; also called 9MP6C4
Regarding B9, the koff with human IL-9 [3] was determined as 0.00044 s⁻¹. In the experiment with mouse IL-9 [4], the binding result was “no binding”.

B10: anti-hIL-9 antibody 7D6 (full IgG) (antibody, V domains shown)
VH: QLQLVESGPGLVKPSQTLSLTCTVSGGSITTGYYAWSWIRQPPGKGLEWMGFIARDGSTSYSPSLKSRTSISRDTSKNQFSLQLSSVTPEDTAVYYCARAGEGRSWYPGYYYGMDYWGKGTLVTVSS
VL: AQAVVTQEPSLSVSPGGTVTLTCGLSSGSVTSSNYPGWYQQTPGQAPRVLIYNTNSRHSGVPSRYSGFISGNKAALTITGAEPEDEADYYCHLHKGSTGVFGGGTHLTVL
notes: also called 9MP7D6
As to B10, in the experiment with human IL-9 [6], the “Bioassay IC50 [pM]: inhibition” value was determined as 2110 pM. The molecule also gave a Kd with human IL-9 [7] of 1.81 nM. For the same molecule, the “IC50, inhibition” value with human IL-9 [8] is 6.3 nM.

B11: Fab 7D6 (Fab, V domains shown)
VH: B10 VH
VL: B10 VL
notes: it is treated as the same molecule; also called 9MP7D6
For B11, the binding result in the experiment with mouse IL-9 [4] is listed as “no binding”.

B12: Fab 7A4 (Fab, V domains shown)
VH: B10 VH with Q1E, L2V
VL: B10 VL with G37A, K95E, T108N
notes: Llama-derived Fab (VH-CH1 and VL-CL) from E. coli periplasmic extract; also called 9MP7A4
On to B12, for which, in the experiment with human IL-9 [3], the koff came to 0.00013 s⁻¹. Also, the binding result with mouse IL-9 [4] is listed as “no binding”.

B13: anti-hIL-9 antibody 6E2 (full IgG) (antibody, V domains shown)
VH: QVQLVESGGGLVQPGGSLRLSCAASGFTFSSSAMGWVRQAPGKGLEWVSTIVNSITTTYYADSVKGRFTISTDNAKNTLYLQIDSLKSEDTAVYYCGSLAGPYYDYWGQGTQVTVSS
VL: LSSALTQPSTVSVSLGQTARITCQGGSLGSYDAHWYQQKPGQAPVLVIHDNNSRPSGIPERFTGSRSGETATLTISGAQTEDEADYYCQSYDSTSDALVFGGGTQLTVL
notes: also called mAb 6E2; 9MP6E2
In the case of B13, in the experiment with human IL-9 [6], the “Bioassay IC50 [pM]: inhibition” value was found to be 30.9 pM. The same molecule registered a Kd with human IL-9 [7] of 0.24 nM. Besides, in the experiment with human IL-9 [8], the “IC50, inhibition” value is 0.0609 nM.

B14: Fab 6E2 (Fab, V domains shown)
VH: B13 VH
VL: B13 VL
notes: it is treated as the same molecule; also called 9MP6E2
As to B14, in the experiment with mouse IL-9 [4], the binding result is on record as “no binding”.
